Results reported in US20200299408A1 (Genentech, published 2020).
Residue numbers refer to the chain shown, from its start. Names may count otherwise. “And” between values parts separate entries of the source, which are not always exact repeats. Identical values can stand only once. Like-named read-outs stand apart in the source and are kept apart here. Blank lines part the entries; values can stand above or below the binder they belong to.

Columns and labels:
[1] = molecular target: T1, commercial CD3ε (Creative Biomart, Catalog Number CD3E-2194H) (human, UniProt P07766); assay: binding affinity on commercial CD3ε (Creative Biomart CD3E-2194H); method not stated in the legend
T1 construct: commercial recombinant protein; also called commercial CD3E

[2] = molecular target: T2, single chain human CD3ε-26mer-CD3γ (CD3εγ) (human); assay: Biacore, human CD3εγ on chip, TDB in flow through
T2 construct: also called human CD3εγ
T2 chain: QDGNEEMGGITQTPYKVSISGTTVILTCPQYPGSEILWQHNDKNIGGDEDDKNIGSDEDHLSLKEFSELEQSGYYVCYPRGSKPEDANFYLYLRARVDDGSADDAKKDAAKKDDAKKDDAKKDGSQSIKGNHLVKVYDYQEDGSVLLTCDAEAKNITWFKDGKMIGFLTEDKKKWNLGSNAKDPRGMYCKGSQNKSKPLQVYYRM
Experimental: (§1) Binding affinities for the each of the CD3/CD20 TDBs were tested by Biacore or FACS analysis, as described above for the anti-CD3 antibodies. Briefly, for Biacore binding assays, human CD3εγ was immobilized on Biacore Series S CM5 sensor chip using the amine coupling kit from Biacore and CD3/CD20 TDBs or Fab variants thereof were in the flow through. For FACS binding assays, either Bjab cells (for B cell antigens) or Jurkat cells (for CD3 antigen) were incubated with various concentrations of TDB antibodies at 4° C. for 30 minutes, then cells were washed and incubated with 2nd antibody (anti-huIgG-PE; BD Bioscience) for another 15 minutes, before cells were washed again and ready for FACS analysis.

human CD3 on T cells [3] = molecular target: T3, human CD3 on T cells (human, UniProt P07766 22-207); assay: FACS on Jurkat cells (CD3); EC50 table for the curves of FIGS. 21A-21B; source CHO (N297G)
T3 construct: whole, on cells; On cells CD3ε stands in the CD3/TCR complex; also called CD3 antigen; CD3ε
Experimental: as §1

human CD3 on T cells [4] = molecular target: T3, human CD3 on T cells; assay: FACS on Jurkat cells (CD3), anti-huIgG-PE; number printed beside the curve without a quantity name, taken as EC50
Experimental: as §1

human CD3 on T cells [5] = molecular target: T3, human CD3 on T cells; assay: as above; remark: listed apart in the source
Experimental: as §1

human CD3 on T cells [6] = molecular target: T3, human CD3 on T cells; assay: as above; remark: listed apart in the source
Experimental: as §1

[7] = molecular target: T1, commercial CD3ε (Creative Biomart, …); assay: binding affinity on commercial CD3ε (Creative Biomart CD3E-2194H); method not stated in the legend; remark: listed apart in the source
Commercial hCD3eg = molecular target: T4, Commercial hCD3eg; assay: mu IgG against commercial hCD3eg; method not stated on the sheet
T4 chain 1: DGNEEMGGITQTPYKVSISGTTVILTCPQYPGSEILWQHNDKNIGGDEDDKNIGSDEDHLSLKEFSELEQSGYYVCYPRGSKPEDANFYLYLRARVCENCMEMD
T4 chain 2: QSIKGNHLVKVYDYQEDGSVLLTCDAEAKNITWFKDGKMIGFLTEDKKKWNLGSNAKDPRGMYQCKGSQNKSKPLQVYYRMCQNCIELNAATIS

[8] = molecular target: T2, single chain human CD3ε-26mer-CD3γ …; assay: Biacore, monovalent KD of the CD3 arm; CD3 antigen not named on the sheet (reactivity hu, cyno)
cyCD3εγ = molecular target: T5, cyCD3εγ (cynomolgus monkey); assay: monovalent binding affinity, method not stated on the sheet
T5 chain 1: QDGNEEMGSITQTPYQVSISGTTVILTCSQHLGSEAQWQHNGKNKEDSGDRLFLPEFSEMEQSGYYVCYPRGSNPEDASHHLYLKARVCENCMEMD
T5 chain 2: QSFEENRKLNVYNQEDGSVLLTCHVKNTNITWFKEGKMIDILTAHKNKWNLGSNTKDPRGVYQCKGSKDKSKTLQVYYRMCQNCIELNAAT

human CD3 on T cells [9] = molecular target: T3, human CD3 on T cells; assay: Scatchard; table headed 'Bivalent Binding Affinity', though its footnote reads 'monovalent binding Kd measured by scatchard'; cells not named

B1: humanized 40G5c variant: VH1 graft + V67A + I69L + R71A / K4 graft (antibody, V domains shown)
VH: EVQLVQSGAEVKKPGASVKVSCKASGYTFTNYYIHWVRQAPGQGLEWIGWIYPGDGNTKYNEKFKGRATLTADTSTSTAYLELSSLRSEDTAVYYCARDSYSNYYFDYWGQGTLVTVSS
VL: DIVMTQSPDSLAVSLGERATINCKSSQSLLNSRTRKNYLAWYQQKPGQPPKLLIYWASTRESGVPDRFSGSGSGTDFTLTISSLQAEDVAVYYCTQSFILRTFGQGTKVEIK
- Kd [1]: 24 nM

B2: KH CD20 2H7v16/38E4v1 (bispecific antibody)
anti-CD20 arm heavy chain: EVQLVESGGGLVQPGGSLRLSCAASGYTFTSYNMHWVRQAPGKGLEWVGAIYPGNGDTSYNQKFKGRFTISVDKSKNTLYLQMNSLRAEDTAVYYCARVVYYSNSYWYFDVWGQGTLVTVSS
anti-CD20 arm light chain: DIQMTQSPSSLSASVGDRVTITCRASSSVSYMHWYQQKPGKAPKPLIYAPSNLASGVPSRFSGSGSGTDFTLTISSLQPEDFATYYCQQWSFNPPTFGQGTKVEIK
anti-CD3 arm heavy chain: B1 VH with Y27F, N31S, G54E, D55N, G56D, G66D, A68V, L70I, S100G, N103R
anti-CD3 arm light chain: B1 VL with P49S, A57T, E61K, T95K
notes: also called 38E4v1 CHO
- Kd [2]: 1.28 nM and 1.3 nM
- koff [2]: 0.00515 s⁻¹
- kon [2]: 4.03e+06 M⁻¹ s⁻¹
- EC50 (human CD3 on T cells [3]): 0.24 µg/mL and ~1.6 nM
- EC50 (human CD3 on T cells [4]): 0.243 µg/mL and 1.6 nM

B3: KH CD20 2H7v16/hu40G5c (bispecific antibody, V domains shown)
VH 1: B2 anti-CD20 arm heavy chain
VL 1: B2 anti-CD20 arm light chain
VH 2: B1 VH
VL 2: B1 VL
modifications: Knob-into-hole full-length IgG; constant regions are not in the letters.
notes: also called KH CD20 2H7v16/40G5c; CD20KH (2H7v16/40G5c)
- EC50 (human CD3 on T cells [5]): 1.6 µg/mL and 11 nM
- EC50 (human CD3 on T cells [6]): 1.21 µg/mL
- EC50 (human CD3 on T cells [4]): 1.25 µg/mL and 8.3 nM

B4: KH CD20 2H7v16/hu38E4c (bispecific antibody)
anti-CD20 arm heavy chain: B2 anti-CD20 arm heavy chain
anti-CD20 arm light chain: B2 anti-CD20 arm light chain
anti-CD3 arm heavy chain: B1 VH with Y27F, N31S, G54E, D55N, G56D, G66D, A68V, L70I
anti-CD3 arm light chain: B1 VL with P49S, A57T, E61K
notes: also called CD3/CD20 TDB 2H7v16/38E4c
- EC50 (human CD3 on T cells [6]): 1.01 µg/mL

B8: 72H6 (antibody, IgG2a, V domains shown)
VH: EVQLQQSGPELVKPGASVKISCKASGYSFTSYYIHWVKQRPGQGLEWIGWIFPGSDNTKYNEKFKGKATLTADTSSSTAYMQLSSLTSEDSAVYFCARNGNYAMDYWGQGTSVTVSS
VL: EIVLSQSPSSLAVSAGEKVTMSCKSSQSLLNSRTRKNYLAWYQQKPGQSPKLLIYWASTRESGVPDRFTGSGSGTDFTLTISSVQAEDLAVYYCKQSYTLRTFGGGTKLEIK
notes: mouse hybridoma clone; also called 72H6 (xCD3)
- Kd (Commercial hCD3eg): 2.5 nM

B10: SP34v52 Fab (Fab, V domains shown)
VH: EVQLVESGGGLVQPGGSLRLSCAASGFTFNTYAMNWVRQAPGKGLEWVARIRSKYNNYATYYADSVKDRFTISRDDSKNTLYLQMNSLRAEDTAVYYCVRHGNFGNSYVSWFAYWGQGTLVTVSS
VL: EAVVTQEPSLTVSPGGTVTLTCRSSTGAVTTSNYANWVQQKPGQAPRGLIGGTNKRAPWTPARFSGSLLGGKAALTLSGAQPEDEAEYYCALWYSNLWVFGGGTKLTVL
- Kd (cyCD3εγ): 12 nM

B12: KH CD20 2H7v16/SP34v52 (bispecific antibody, V domains shown)
VH 1: B2 anti-CD20 arm heavy chain
VL 1: B2 anti-CD20 arm light chain
VH 2: B10 VH
VL 2: B10 VL
modifications: Knob-into-hole full-length IgG; constant regions are not in the letters.
notes: full-length knob-into-hole human IgG1 TDB; also called CD3/CD20 TDB 2H7v16/SP34v52
- EC50 (human CD3 on T cells [6]): 1.11 µg/mL
- EC50 (human CD3 on T cells [4]): 0.6 µg/mL and 4 nM

B13: K&H 2H7v16/hu UCHT1v1 (bispecific antibody, V domains shown)
VH 1: B2 anti-CD20 arm heavy chain
VL 1: B2 anti-CD20 arm light chain
VH 2: EVQLVESGGGLVQPGGSLRLSCAASGYSFTGYTMNWVRQAPGKGLEWVALINPYKGVTTYADSVKGRFTISVDKSKNTAYLQMNSLRAEDTAVYYCARSGYYGDSDWYFDVWGQGTLVTVSS
VL 2: DIQMTQSPSSLSASVGDRVTITCRASQDIRNYLNWYQQKPGKAPKLLIYYTSRLESGVPSRFSGSGSGTDYTLTISSLQPEDFATYYCQQGNTLPWTFGQGTKVEIK
modifications: Knob-into-hole full-length IgG; constant regions are not in the letters.
notes: also called CD3/CD20 TDB 2H7v16/UCHT1v1
- Kd (human CD3 on T cells [9]): 300 nM

B14: CD20KH (2H7v16/21A9) (bispecific antibody, V domains shown)
VH 1: B2 anti-CD20 arm heavy chain
VL 1: B2 anti-CD20 arm light chain
VH 2: EVQLVESGGGVVQPGGSLKLSCAASGFTFSGSAMHWVRQASEKGLEWVGRIRSRANSYATAYAASVKDRFTISRDNSKNTAYLQMNSLKTEDTAVYYCIRDTMVRGIDYWGQGTLVTVSS
VL 2: not shown
modifications: Knob-into-hole full-length IgG; constant regions are not in the letters.
notes: also called CD3/CD20 TDB 2H7v16/21A9
- EC50 (human CD3 on T cells [5]): 1.6 µg/mL and 11 nM

Next, values leading:

- Kd [1]: 36 nM
B5: humanized 40G5c variant: VH1 graft + I69L + R71A / K4 graft (antibody, V domains shown)
VH: B1 VH with A68V
VL: B1 VL

- Kd [1]: 37 nM
B6: humanized 40G5c variant: VH1 graft + V67A + R71A / K4 graft (antibody, V domains shown)
VH: B1 VH with L70I
VL: B1 VL

- Kd [7]: 0.75 nM
B7: murine 38E4 (antibody, V domains shown)
VH: QVQLQQSGPELVKPGASVTISCTASGFTFTSYYIHWVRQRPGQGLEWIGWIYPENDNTKYNEKFKDKATLTADTSSSTAYMQLSSLTSEDSAVYYCARDGYSRYYFDYWGQGTTLTVSS
VL: B8 VL with E1D, L4M, S5T, S10F, K45R, A57T, E61K, V91I, Y98F, T99I

- Kd [8]: 0.75 nM
B9: murine 38E4 (antibody, V domains shown)
VH: B7 VH
VL: B8 VL with E1D, L4M, S5T, S10F, K45R, A57T, E61K, V91I, Y98F, T99I
notes: KD is printed as monovalent

- Kd [8]: 1.9 nM
B11: murine SP34 (antibody, V domains shown)
VH: B10 VH with G15K, R19K, K78Q, N79S, T80I, S87N, R89K, A90T, V95M
VL: QAVVTQESALTTSPGETVTLTCRSSTGAVTTSNYANWVQEKPDHLFTGLIGGTNKRAPGVPARFSGSLIGDKAALTITGAQTEDEAIYFCALWYSNLWVFGGGTKLTVL
notes: KD is printed as monovalent
